Article PMC9907810 (2023)

Target: SARS-CoV-2 receptor-binding domain (RBD), prototype (Wuhan-Hu-1), Avi-tagged and biotinylated (SARS-CoV-2)
Assay: BLI

B1: Ab08 single-chain fragment variable (scFv) (scFv, V domains shown)
VH: QVQLVQSGAEVKKPGSSVKVSCKASGGTFSSYTISWVRQAPGQGLEWMGGIIPILGTTNYAQKFQGRVTITADESTSTAYMELSSLRSEDTAVYYCARKFGYSGYGATWYFDLWGRGTLVTVSS
VL: QSVLTQPPSVSGAPGQRVTISCTGNSSNIGAGYDVHWYQQFPGTAPKLLIYGNSNRPSGVPDRFSGSKSGTSASLAITGLQAEDEADYYCQSYDSSLSGSVFGGGTKLTVL
B1 gave a koff of 7.5e-05 s⁻¹.
